Assay results from US20230340152A1.
Blank lines part the entries; values can stand above or below the binder they belong to.

Experiments:
[1] = target: Cynomolgus CD73 ECD (cynomolgus); assay: binding assay, format not stated
Murine CD73 ECD (murine) = Murine CD73 ECD (murine) (UniProt Q61503); assay: binding assay, format not stated
Chain of Murine CD73 ECD (murine) (Q61503 29-551 limits assumed): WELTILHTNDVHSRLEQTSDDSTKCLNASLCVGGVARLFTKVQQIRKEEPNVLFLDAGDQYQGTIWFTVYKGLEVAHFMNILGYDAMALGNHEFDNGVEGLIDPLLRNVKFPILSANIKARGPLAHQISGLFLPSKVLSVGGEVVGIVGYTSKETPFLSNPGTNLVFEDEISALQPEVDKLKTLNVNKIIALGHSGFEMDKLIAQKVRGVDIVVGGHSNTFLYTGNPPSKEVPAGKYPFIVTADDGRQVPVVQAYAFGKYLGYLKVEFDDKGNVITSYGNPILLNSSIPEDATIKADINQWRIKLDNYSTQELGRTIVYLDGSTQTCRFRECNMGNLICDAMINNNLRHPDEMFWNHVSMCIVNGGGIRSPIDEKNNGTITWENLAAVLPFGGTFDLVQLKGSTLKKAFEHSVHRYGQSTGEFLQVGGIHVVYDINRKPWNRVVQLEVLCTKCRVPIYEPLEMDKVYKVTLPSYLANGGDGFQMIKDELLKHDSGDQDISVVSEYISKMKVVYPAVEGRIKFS

Chain of Cynomolgus CD73 ECD (cynomolgus) (chain, as listed by the source): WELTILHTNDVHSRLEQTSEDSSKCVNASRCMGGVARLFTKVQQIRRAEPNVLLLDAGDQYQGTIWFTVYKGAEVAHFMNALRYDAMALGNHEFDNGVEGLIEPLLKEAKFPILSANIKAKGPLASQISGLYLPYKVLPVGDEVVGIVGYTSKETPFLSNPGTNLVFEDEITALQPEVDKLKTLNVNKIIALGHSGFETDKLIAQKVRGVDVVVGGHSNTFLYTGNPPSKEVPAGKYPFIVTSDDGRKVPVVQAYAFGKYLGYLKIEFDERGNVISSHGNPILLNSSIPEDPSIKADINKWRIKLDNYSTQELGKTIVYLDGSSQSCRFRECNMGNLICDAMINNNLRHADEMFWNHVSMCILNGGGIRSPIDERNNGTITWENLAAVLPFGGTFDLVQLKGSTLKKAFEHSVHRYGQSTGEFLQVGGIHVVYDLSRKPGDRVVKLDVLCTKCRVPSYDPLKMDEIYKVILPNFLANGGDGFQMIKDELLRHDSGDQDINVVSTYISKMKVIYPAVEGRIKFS

1/EC50 [1]: 0 nM⁻¹
1/EC50 (Murine CD73 ECD (murine)): 0 nM⁻¹
B1: CD730047 (antibody, V domains shown)
VH: EVQLVQSGGGVVQPGRSLRLSCAASGFTFSSYGMHWVRQAPGKGLEWVAVISYDGSIKYYADSVKGRFAISRDNAKNTLYLQMNSLRREDTAMYYCASGLTGVAGALGVWGRGTLVTVSS
VL: QSVLTQPPSASGAPGQRVTISCSGSSSNIGSNTVNWYQRLPGAAPQLLIYNNDQRPSGIPDRFSGSKSGTSGSLVISGLQSEDEADYYCAAWDDSLSGNVFGTGTKVTVL

1/EC50 (Murine CD73 ECD (murine)): 0 nM⁻¹
B2: CD730042 (antibody, V domains shown)
VH: GVQLVQSGGGLVQPGGSLRLSCAASGFTFSSYGMHWVRQAPGKGLEWVAVISYDGSIKYYADSVKGRFTISRDDSKNALYLQMNSLRAEDTAVYYCSTLSGSYGYFDYWGRGTLVTVSS
VL: QSVLTQPASVSGSPGQSITISCAGTSSDVGGYNYVSWYQQHPGKAPKLMIYEGSKRPSGVSNRFSGSKSGNTASLTISGLQAEDEADYYCSSYTTRSTRVFGGGTKLTVL
